System: E. necator
Assay: Leaf disc assay, dry inoculum (settling tower), decrease in disease severity / hyphal growth (Example 2)
Conditions: decrease in disease severity (hyphal growth) relative to untreated control, value ± SE; for % decrease =/− SE TP1: time point 1 (untreated control hyphal growth ≥50%); for % decrease =/− SE TP2: time point 2

B1: GS3919 (nucleic acid)
sense: AUUGCGCCAAAAUGUGAGGUAAGGAUUACUAACUUGCUGAGCUUGAAGAACUCAUCAACACCAGUAUCUUUAGCUGGUAAACAAGUUAAGCAAAUUCAAAGCAACUUACCAUCGACAAGUAAACAACUUGGAAUAUUUGCAAAAGAAAACAUCUUACCGGGCGAAUCAAUCCUUAAAGAGCUGUCAUAUCUCACUGUUAAUAAUAGACUCAAAGGCCCUCUAUGUGAUGCUUGUAGUGCUGAAAUUCCUUCUCUAUAUGAAACUGAAAGUACAGCAAUGAGCUGUCUCGAGUGUGAUGAAAUCUCAUUCUGUAGUGAUGAAUGCAAACGUGGAGCUGAGCUCGAAUAUCAUCCAGCAGUAUGUGGUAAAGAUGUUGAGACAAUUGGCAAGGACUGG
antisense: CCAGUCCUUGCCAAUUGUCUCAACAUCUUUACCACAUACUGCUGGAUGAUAUUCGAGCUCAGCUCCACGUUUGCAUUCAUCACUACAGAAUGAGAUUUCAUCACACUCGAGACAGCUCAUUGCUGUACUUUCAGUUUCAUAUAGAGAAGGAAUUUCAGCACUACAAGCAUCACAUAGAGGGCCUUUGAGUCUAUUAUUAACAGUGAGAUAUGACAGCUCUUUAAGGAUUGAUUCGCCCGGUAAGAUGUUUUCUUUUGCAAAUAUUCCAAGUUGUUUACUUGUCGAUGGUAAGUUGCUUUGAAUUUGCUUAACUUGUUUACCAGCUAAAGAUACUGGUGUUGAUGAGUUCUUCAAGCUCAGCAAGUUAGUAAUCCUUACCUCACAUUUUGGCGCAAU
% decrease =/− SE TP1: 23 ± 8%
% decrease =/− SE TP2: 16 ± 9%

B2: GS3922 (nucleic acid)
sense: CCCGAAUGAAUGCUAUCAACAUGGGAUAGUAGUUCACGUUCACUCCGAAAUUUUAUAUUACAAAACAUACACUCUGCAUGUUCUUUUCGAAUAUGAGCCUGUAACUUUGAAUAACUUGUGAAGCCUAGAUUUAAUGGCGUACCAUCUGAAUUAAAAGAUCCUGUCAAGCAACAUUCAUUACAGAAAUAUCGAGCACUGCCAUGAGCUCGCUCUUGGUGUCGACGAAGGCUGGCGGAACUAUCGAAACCUGAGUUGCAACUUUCGCCAGUGACAGGGUCAACAUGGACACAGGGAUACGGCAUAAGCUGAAGAUGUUCAGAGCGAAUAUGACGCUGGAGAGUUUGAUGUUUUCGGAAAUUUUGGCUACAGGGUGGGUAAUUUGUACAUUUGAAU
antisense: AUUCAAAUGUACAAAUUACCCACCCUGUAGCCAAAAUUUCCGAAAACAUCAAACUCUCCAGCGUCAUAUUCGCUCUGAACAUCUUCAGCUUAUGCCGUAUCCCUGUGUCCAUGUUGACCCUGUCACUGGCGAAAGUUGCAACUCAGGUUUCGAUAGUUCCGCCAGCCUUCGUCGACACCAAGAGCGAGCUCAUGGCAGUGCUCGAUAUUUCUGUAAUGAAUGUUGCUUGACAGGAUCUUUUAAUUCAGAUGGUACGCCAUUAAAUCUAGGCUUCACAAGUUAUUCAAAGUUACAGGCUCAUAUUCGAAAAGAACAUGCAGAGUGUAUGUUUUGUAAUAUAAAAUUUCGGAGUGAACGUGAACUACUAUCCCAUGUUGAUAGCAUUCAUUCGGG
% decrease =/− SE TP2: 27 ± 12%

B3: GS3920 (nucleic acid)
sense: UCAACGUAAAUUUUAUAAGCAAGGCUCUGGUAAAGUGGAACCUUACUUUUUAAUCCUCAACAAGGAAGGAGAGUUCAUUGAUGUAGUCGUUGAAGGGCUGAUGAAUAACUUCAUAAGAUGUCAACAAACAAGAAAAAUCUCUACAGAAUUAAUUUCAGAUGCACCUAAUCAACCGGUACCAUCUCAAAUAUCUGGAUAUCAAUGUGGUAAAUUUUUUUUUAGCAAUGAGGAACUUGAGAAUACUGCAAAUGUGGCUAGAGAUAUCAUGCUUCAGAGAAGUCAAAAUAAAAUUCCCACUAAGUAUAA
antisense: UUAUACUUAGUGGGAAUUUUAUUUUGACUUCUCUGAAGCAUGAUAUCUCUAGCCACAUUUGCAGUAUUCUCAAGUUCCUCAUUGCUAAAAAAAAAUUUACCACAUUGAUAUCCAGAUAUUUGAGAUGGUACCGGUUGAUUAGGUGCAUCUGAAAUUAAUUCUGUAGAGAUUUUUCUUGUUUGUUGACAUCUUAUGAAGUUAUUCAUCAGCCCUUCAACGACUACAUCAAUGAACUCUCCUUCCUUGUUGAGGAUUAAAAAGUAAGGUUCCACUUUACCAGAGCCUUGCUUAUAAAAUUUACGUUGA
% decrease =/− SE TP1: 14 ± 11%
% decrease =/− SE TP2: 12 ± 12%

B4: GS3921 (nucleic acid)
sense: UUCGCGGUGUCUUCCUUUCCAGAGCCUUUAGUCUUUGAAGGAUUUUCUUCUUCAUCCCCAUCUUCACCCUCCGCUUCUGCAUUGACUUCGUCGGCCUUUUUUGCUUUUUUUUCUUCCCCAGAUUUGCCUUUCGUUGUUAGAGCUCCUAGGCCACUAGCGAGAGAAUUUGAACCAUUACCACCGCCAACAAGAACUCCUGCUUUACCUCCUAUGGUCACCUCUUGAAUACUCUGACUUUCAUUUUCCGCAGCAUUGGCUUGCUUUUUGGAAGAUGAGCUAGAGUCAUGUGAUUUUUCUGAAUUCGAUGCCUUAUUUUUCUGAUCUUUU
antisense: AAAAGAUCAGAAAAAUAAGGCAUCGAAUUCAGAAAAAUCACAUGACUCUAGCUCAUCUUCCAAAAAGCAAGCCAAUGCUGCGGAAAAUGAAAGUCAGAGUAUUCAAGAGGUGACCAUAGGAGGUAAAGCAGGAGUUCUUGUUGGCGGUGGUAAUGGUUCAAAUUCUCUCGCUAGUGGCCUAGGAGCUCUAACAACGAAAGGCAAAUCUGGGGAAGAAAAAAAAGCAAAAAAGGCCGACGAAGUCAAUGCAGAAGCGGAGGGUGAAGAUGGGGAUGAAGAAGAAAAUCCUUCAAAGACUAAAGGCUCUGGAAAGGAAGACACCGCGAA
% decrease =/− SE TP1: 3 ± 8%
% decrease =/− SE TP2: 8 ± 8%

B5: GS3917 (nucleic acid)
sense: CCAGGCUAAAUCUGUGCUCCAAACACAGUCAGUAAUACAGACUUUAAUUGCUGAGUGUUUAUCUUUGGGGAAAACAAAAAUGAUUAUUGAUCUCUCCUCGAAUAGUGGAGGUAAUUUGGUCGUUGGUUAUGACACAUUCCGACAAUUUUUCCCUACCAUUGAACAGCCAGGUUAUUCACGAUUUCGAUUACACGAGGCGCUAAAAAUUAUUACGAAACAGAUCUCGAAAAUCGCAUCGAAUUUCUCUUUUACAAGUACAAACCCCACUGAUUAUGAUUAUUACCAAACUCCGUUUAAUUAUAGAUUCGAUCUAAAUGAAACCAAUGAAAAAUUUCUUAGCUACGAGGAUAAAUUCAGUCCAAGAAAAUUUAAUGGUGAUGAAUUCACUAGCAAUAUGA
antisense: UCAUAUUGCUAGUGAAUUCAUCACCAUUAAAUUUUCUUGGACUGAAUUUAUCCUCGUAGCUAAGAAAUUUUUCAUUGGUUUCAUUUAGAUCGAAUCUAUAAUUAAACGGAGUUUGGUAAUAAUCAUAAUCAGUGGGGUUUGUACUUGUAAAAGAGAAAUUCGAUGCGAUUUUCGAGAUCUGUUUCGUAAUAAUUUUUAGCGCCUCGUGUAAUCGAAAUCGUGAAUAACCUGGCUGUUCAAUGGUAGGGAAAAAUUGUCGGAAUGUGUCAUAACCAACGACCAAAUUACCUCCACUAUUCGAGGAGAGAUCAAUAAUCAUUUUUGUUUUCCCCAAAGAUAAACACUCAGCAAUUAAAGUCUGUAUUACUGACUGUGUUUGGAGCACAGAUUUAGCCUGG
% decrease =/− SE TP2: 29 ± 12%

— patent US12077763B2, “RNA-based control of powdery mildew” (Greenlight Biosciences, Inc., priority 2021, dated 2024)
